Results on 1 protein are retold here after paper PMC5909953 (Current biology : CB, 2017).

The data set deals with the molecule itself. The data set is described as follows: single molecule photobleaching.

B1: Kif15-FL-GFP-His6 (natural protein, human, UniProt Q9NS87 1-1388, looked up)
chain: MAPGCKTELRSVTNGQSNQPSNEGDAIKVFVRIRPPAERSGSADGEQNLCLSVLSSTSLRLHSNPEPKTFTFDHVADVDTTQESVFATVAKSIVESCMSGYNGTIFAYGQTGSGKTFTMMGPSESDNFSHNLRGVIPRSFEYLFSLIDREKEKAGAGKSFLCKCSFIEIYNEQIYDLLDSASAGLYLREHIKKGVFVVGAVEQVVTSAAEAYQVLSGGWRNRRVASTSMNRESSRSHAVFTITIESMEKSNEIVNIRTSLLNLVDLAGSERQKDTHAEGMRLKEAGNINRSLSCLGQVITALVDVGNGKQRHVCYRDSKLTFLLRDSLGGNAKTAIIANVHPGSRCFGETLSTLNFAQRAKLIKNKAVVNEDTQGNVSQLQAEVKRLKEQLAELASGQTPPESFLTRDKKKTNYMEYFQEAMLFFKKSEQEKKSLIEKVTQLEDLTLKKEKFIQSNKMIVKFREDQIIRLEKLHKESRGGFLPEEQDRLLSELRNEIQTLREQIEHHPRVAKYAMENHSLREENRRLRLLEPVKRAQEMDAQTIAKLEKAFSEISGMEKSDKNQQGFSPKAQKEPCLFANTEKLKAQLLQIQTELNNSKQEYEEFKELTRKRQLELESELQSLQKANLNLENLLEATKACKRQEVSQLNKIHAETLKIITTPTKAYQLHSRPVPKLSPEMGSFGSLYTQNSSILDNDILNEPVPPEMNEQAFEAISEELRTVQEQMSALQAKLDEEEHKNLKLQQHVDKLEHHSTQMQELFSSERIDWTKQQEELLSQLNVLEKQLQETQTKNDFLKSEVHDLRVVLHSADKELSSVKLEYSSFKTNQEKEFNKLSERHMHVQLQLDNLRLENEKLLESKACLQDSYDNLQEIMKFEIDQLSRNLQNFKKENETLKSDLNNLMELLEAEKERNNKLSLQFEEDKENSSKEILKVLEAVRQEKQKETAKCEQQMAKVQKLEESLLATEKVISSLEKSRDSDKKVVADLMNQIQELRTSVCEKTETIDTLKQELKDINCKYNSALVDREESRVLIKKQEVDILDLKETLRLRILSEDIERDMLCEDLAHATEQLNMLTEASKKHSGLLQSAQEELTKKEALIQELQHKLNQKKEEVEQKKNEYNFKMRQLEHVMDSAAEDPQSPKTPPHFQTHLAKLLETQEQEIEDGRASKTSLEHLVTKLNEDREVKNAEILRMKEQLREMENLRLESQQLIEKNWLLQGQLDDIKRQKENSDQNHPDNQQLKNEQEESIKERLAKSKIVEEMLKMKADLEEVQSALYNKEMECLRMTDEVERTQTLESKAFQEKEQLRSKLEEMYEERERTSQEMEMLRKQVECLAEENGKLVGHQNLHQKIQYVVRLKKENVRLAEETEKLRAENVFLKEKKRSES
In the case of B1, the “stoichiometry N” value is 2.
